Results reported in the supplement of paper PMC10201428.
± gives the standard deviation of the averaged measurements.

Assays:
[1] = tested on: VchCAST RNA-guided transposition machinery (E. coli BL21(DE3) host, lacZ target); experiment: relative integration efficiency (T-RL orientation) vs wild-type transposon end (log2 (normalized fold change)); transposon end mutated: right end (5 bp flank + 75 bp right end); higher = more efficient transposition
Method in brief: (§1)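 Pools of 1549 left-end or 1849 right-end barcoded transposon variants were cloned into a pUC57 mini-transposon donor and co-transformed into E. coli BL21(DE3) with a T7-driven effector plasmid carrying a CRISPR array, tniQ-cas8-cas7-cas6 and tnsA-tnsB-tnsC. Plating used 0.1 mM IPTG at 37°C for 18 h, and input plasmids and genomic integration junctions were PCR-amplified for Illumina sequencing, with two biological output replicates and four reference barcodes. Relative integration efficiency is the log-transformed fold change of output over input barcode abundance, normalised to the reference barcodes.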

[2] = tested on: VchCAST RNA-guided transposition machinery (E. coli BL21(DE3) host, lacZ target); experiment: relative integration efficiency (T-LR orientation) vs wild-type transposon end (log2 (normalized fold change)); transposon end mutated: right end (5 bp flank + 75 bp right end); higher = more efficient transposition
Method in brief: as §1

ACATTTGTTGATACAACCATAAAATGATAATTACACCCATACCGGTCGCCGGCGACACAAACGCCCGGTCGCGGTAAGAGGATCATAGTCAGACCAACATTGCTACGACCCGTATTCGCACCGACAC
relative integration efficiency (log2) [1]: -2.6 ± 0.11
relative integration efficiency (log2) [2]: 0.296 ± 0.13

ACATTTGTTGATACAACCATAAAATGATAATTACACCCATACCTTGATAATTATCACACCCATAAATTGATATTGCCTCTGATCATAGTCAGACCAACATTGCTACGACCCGTATTCGCACCGACAC
relative integration efficiency (log2) [1]: -0.707 ± 0.089
relative integration efficiency (log2) [2]: -0.978 ± 0.071

ACATTTGTTGATACAACCATAAAATGATAATTACACCCATATTAAGATAATTATCACACCCATAAATTGATATTGCCTCTGATCATAGTCAGACCAACATTGCTACGACCCGTATTCGCACCGACAC
relative integration efficiency (log2) [1]: -0.6107 ± 0.0014
relative integration efficiency (log2) [2]: -0.688 ± 0.12

ACATTTGTTGATACAACCATAAAATGATAATTACACCCATATTTTGATAATTATCACACCCATAAATTGATATTGCCTCTGATCATAGTCAGACCAACATTGCTACGACCCGTATTCGCACCGACAC
relative integration efficiency (log2) [1]: -0.188 ± 0.015
relative integration efficiency (log2) [2]: 0.00197 ± 0.1

ACATTTGTTGATACAACCATAAAATGATAATTACACCCATCAATTGATAATTATCACACCCCATTTAACTATAACGCTCTGATCATAGTCAGACCAACATTGCTACGACCCGTATTCGCACCGACAC
relative integration efficiency (log2) [1]: -1.68 ± 0.23
relative integration efficiency (log2) [2]: 1.6 ± 0.24

ACATTTGTTGATACAACCATAAAATGATAATTACACCCATCAATTGATAATTATCCCACCCAATTTAACTATAACGCTCTGATCATAGTCAGACCAACATTGCTACGACCCGTATTCGCACCGACAC
relative integration efficiency (log2) [1]: -1.93 ± 0.31
relative integration efficiency (log2) [2]: 1.54 ± 0.022

ACATTTGTTGATACAACCATAAAATGATAATTACACCCATCAATTGATAATTATCCCACCCCATTTAACTATAACGCTCTGATCATAGTCAGACCAACATTGCTACGACCCGTATTCGCACCGACAC
relative integration efficiency (log2) [1]: -2.54 ± 0.3
relative integration efficiency (log2) [2]: 1.52 ± 0.21

ACATTTGTTGATACAACCATAAAATGATAATTACACCCATCCATTGATAATTATCACACCCATAAATTGATATTGCCTCTGATCATAGTCAGACCAACATTGCTACGACCCGTATTCGCACCGACAC
relative integration efficiency (log2) [1]: -1.21 ± 0.089
relative integration efficiency (log2) [2]: -1.63 ± 1

ACATTTGTTGATACAACCATAAAATGATAATTACACCCATCCCGGTCGCCGGCGACACAAACGCCCGGTCGCGGTAAGAGGATCATAGTCAGACCAACATTGCTACGACCCGTATTCGCACCGACAC
relative integration efficiency (log2) [1]: -2.64 ± 0.12
relative integration efficiency (log2) [2]: 0.414 ± 0.23

ACATTTGTTGATACAACCATAAAATGATAATTACACCCATCCCGTGATAATTATCACACCCATAAATTGATATTGCCTCTGATCATAGTCAGACCAACATTGCTACGACCCGTATTCGCACCGACAC
relative integration efficiency (log2) [1]: -1.77 ± 0.12
relative integration efficiency (log2) [2]: -1.98 ± 0.74

ACATTTGTTGATACAACCATAAAATGATAATTACACCCATTAATTGATAATAATGACACCGAATTTAACTATAACGCTCTGATCATAGTCAGACCAACATTGCTACGACCCGTATTCGCACCGACAC
relative integration efficiency (log2) [1]: -1.51 ± 0.32
relative integration efficiency (log2) [2]: 2.24 ± 0.16

ACATTTGTTGATACAACCATAAAATGATAATTACACCCATTAATTGATAATGATGACACCGAATTTAACTATAACGCTCTGATCATAGTCAGACCAACATTGCTACGACCCGTATTCGCACCGACAC
relative integration efficiency (log2) [1]: -1.4 ± 0.35
relative integration efficiency (log2) [2]: 2.15 ± 0.056

ACATTTGTTGATACAACCATAAAATGATAATTACACCCATTAATTGATAATTGTGACACCGAATTTAACTATAACGCTCTGATCATAGTCAGACCAACATTGCTACGACCCGTATTCGCACCGACAC
relative integration efficiency (log2) [1]: -1.29 ± 0.37
relative integration efficiency (log2) [2]: 2.21 ± 0.16

ACATTTGTTGATACAACCATAAAATGATAATTACACCCATTTATTGATAATTATCACACCCATAAATTGATATTGCCTCTGATCATAGTCAGACCAACATTGCTACGACCCGTATTCGCACCGACAC
relative integration efficiency (log2) [1]: -0.33 ± 0.029
relative integration efficiency (log2) [2]: -0.628 ± 0.89

ACATTTGTTGATACAACCATAAAATGATAATTACACCCATTTTATGATAATTATCACACCCATAAATTGATATTGCCTCTGATCATAGTCAGACCAACATTGCTACGACCCGTATTCGCACCGACAC
relative integration efficiency (log2) [1]: 2.79 ± 0.74
relative integration efficiency (log2) [2]: 2.63 ± 0.56

ACATTTGTTGATACAACCATAAAATGATAATTACACCCCGAAATTGATAATTATCACACCCATAAATTGATATTGCCTCTGATCATAGTCAGACCAACATTGCTACGACCCGTATTCGCACCGACAC
relative integration efficiency (log2) [1]: -3.14 ± 0.19
relative integration efficiency (log2) [2]: -2.51 ± 0.16

ACATTTGTTGATACAACCATAAAATGATAATTACACCCCGCCATTGATAATTATCACACCCATAAATTGATATTGCCTCTGATCATAGTCAGACCAACATTGCTACGACCCGTATTCGCACCGACAC
relative integration efficiency (log2) [1]: -3.5 ± 0.22
relative integration efficiency (log2) [2]: -2.56 ± 0.28

ACATTTGTTGATACAACCATAAAATGATAATTACACCCCGCCCGGTCGCCGGCGACACAAACGCCCGGTCGCGGTAAGAGGATCATAGTCAGACCAACATTGCTACGACCCGTATTCGCACCGACAC
relative integration efficiency (log2) [1]: -2.33 ± 0.061
relative integration efficiency (log2) [2]: 0.746 ± 0.13

ACATTTGTTGATACAACCATAAAATGATAATTACACCCCTACATTGATAATTATCACACCCAATTTAACTATAACGCTCTGATCATAGTCAGACCAACATTGCTACGACCCGTATTCGCACCGACAC
relative integration efficiency (log2) [1]: -2.87 ± 0.33
relative integration efficiency (log2) [2]: 0.306 ± 0.013

ACATTTGTTGATACAACCATAAAATGATAATTACACCCTAAAATTGATAATTATCACACCCATAAATTGATATTGCCTCTGATCATAGTCAGACCAACATTGCTACGACCCGTATTCGCACCGACAC
relative integration efficiency (log2) [1]: -0.736 ± 0.05
relative integration efficiency (log2) [2]: -1.14 ± 0.11

ACATTTGTTGATACAACCATAAAATGATAATTACACCCTATTATTGATAATTATCACACCCATAAATTGATATTGCCTCTGATCATAGTCAGACCAACATTGCTACGACCCGTATTCGCACCGACAC
relative integration efficiency (log2) [1]: -0.713 ± 0.11
relative integration efficiency (log2) [2]: -0.974 ± 0.13

ACATTTGTTGATACAACCATAAAATGATAATTACACCGTATAATTGATAATTATCACACCCATAAATTGATATTGCCTCTGATCATAGTCAGACCAACATTGCTACGACCCGTATTCGCACCGACAC
relative integration efficiency (log2) [1]: -1.74 ± 0.11
relative integration efficiency (log2) [2]: -1.63 ± 0.12

ACATTTGTTGATACAACCATAAAATGATAATTACACCGTTAAATTGATAATTATCACACCCATAAATTGATATTGCCTCTGATCATAGTCAGACCAACATTGCTACGACCCGTATTCGCACCGACAC
relative integration efficiency (log2) [1]: -0.609 ± 0.084
relative integration efficiency (log2) [2]: -1.18 ± 0.3

ACATTTGTTGATACAACCATAAAATGATAATTACACGGATAAATTGATAATTATCACACCCATAAATTGATATTGCCTCTGATCATAGTCAGACCAACATTGCTACGACCCGTATTCGCACCGACAC
relative integration efficiency (log2) [1]: -0.265 ± 0.13
relative integration efficiency (log2) [2]: -0.469 ± 0.21

ACATTTGTTGATACAACCATAAAATGATAATTACACGGTAAAATTGATAATTATCACACCCATAAATTGATATTGCCTCTGATCATAGTCAGACCAACATTGCTACGACCCGTATTCGCACCGACAC
relative integration efficiency (log2) [1]: -1.85 ± 0.1
relative integration efficiency (log2) [2]: -2.29 ± 0.055

ACATTTGTTGATACAACCATAAAATGATAATTACAGGCATAAATTGATAATTATCACACCCATAAATTGATATTGCCTCTGATCATAGTCAGACCAACATTGCTACGACCCGTATTCGCACCGACAC
relative integration efficiency (log2) [1]: -0.00584 ± 0.032
relative integration efficiency (log2) [2]: -0.52 ± 0.19

ACATTTGTTGATACAACCATAAAATGATAATTACAGGGTTAAATTGATAATTATCACACCCATAAATTGATATTGCCTCTGATCATAGTCAGACCAACATTGCTACGACCCGTATTCGCACCGACAC
relative integration efficiency (log2) [1]: -1.5 ± 0.12
relative integration efficiency (log2) [2]: -2.54 ± 0.42

ACATTTGTTGATACAACCATAAAATGATAATTACCAAAATAAATTGATAATTATCACACCCATAAATTGATATTGCCTCTGATCATAGTCAGACCAACATTGCTACGACCCGTATTCGCACCGACAC
relative integration efficiency (log2) [1]: -0.773 ± 0.1
relative integration efficiency (log2) [2]: -1.47 ± 0.039

ACATTTGTTGATACAACCATAAAATGATAATTACCAAACGCCCGGTCGCCGGCGACACAAACGCCCGGTCGCGGTAAGAGGATCATAGTCAGACCAACATTGCTACGACCCGTATTCGCACCGACAC
relative integration efficiency (log2) [1]: -1.94 ± 0.27
relative integration efficiency (log2) [2]: 0.864 ± 0.055

ACATTTGTTGATACAACCATAAAATGATAATTACCACCATAAATTGATAATTATCACACCCATAAATTGATATTGCCTCTGATCATAGTCAGACCAACATTGCTACGACCCGTATTCGCACCGACAC
relative integration efficiency (log2) [1]: 0.0622 ± 0.17
relative integration efficiency (log2) [2]: -0.372 ± 0.27

ACATTTGTTGATACAACCATAAAATGATAATTACCACCCATAAATTGATAATTATCACACCCATTTAACTATAACGCTCTGATCATAGTCAGACCAACATTGCTACGACCCGTATTCGCACCGACAC
relative integration efficiency (log2) [1]: -0.999 ± 0.21
relative integration efficiency (log2) [2]: 1.69 ± 0.051

ACATTTGTTGATACAACCATAAAATGATAATTACCACCCATACATTGATAATTATCACACCCATTTAACTATAACGCTCTGATCATAGTCAGACCAACATTGCTACGACCCGTATTCGCACCGACAC
relative integration efficiency (log2) [1]: -2.43 ± 0.1
relative integration efficiency (log2) [2]: 0.106 ± 0.04

ACATTTGTTGATACAACCATAAAATGATAATTACCACCCCTAAATTGATAATTATCACACCCATTTAACTATAACGCTCTGATCATAGTCAGACCAACATTGCTACGACCCGTATTCGCACCGACAC
relative integration efficiency (log2) [1]: -3.13 ± 0.18
relative integration efficiency (log2) [2]: -0.321 ± 0.18

ACATTTGTTGATACAACCATAAAATGATAATTACCACCCCTACATTGATAATTATCACACCCATTTAACTATAACGCTCTGATCATAGTCAGACCAACATTGCTACGACCCGTATTCGCACCGACAC
relative integration efficiency (log2) [1]: -3.12 ± 0.17
relative integration efficiency (log2) [2]: -0.0894 ± 0.12

ACATTTGTTGATACAACCATAAAATGATAATTACCCCCATAAATTGATAATAATGACACCGAATTTAACTATAACGCTCTGATCATAGTCAGACCAACATTGCTACGACCCGTATTCGCACCGACAC
relative integration efficiency (log2) [1]: -1.7 ± 0.48
relative integration efficiency (log2) [2]: 1.94 ± 0.1
